“And” between values parts separate entries of the source, which are not always exact repeats. Equal entries are not always repeated.

The conditions of the data set: 25 °C, reversible: Yes, whole UniProt chain shown.
Where [1] appears, read: Rattus norvegicus, pH 7.5, Urea, Fluorescence, Sodium phosphate 20 mM, KCl 100 mM.
Setting [2] is: Bos taurus, pH 7.4, GdnHCl, CD, Tris 20 mM.

B1: Fatty acid-binding protein, intestinal wild type, P02693 (protein)
chain: MAFDGTWKVDRNENYEKFMEKMGINVVKRKLGAHDNLKLTITQEGNKFTVKESSNFRNIDVVFELGVDFAYSLADGTELTGTWTMEGNKLVGKFKRVDNGKELIAVREISGNELIQTYTYEGVEAKRIFKKE
As for B1, under setting [1], the denaturant m value was 1.7 kcal/mol/M and the unfolding free energy was 9.2 kcal/mol. Moreover, the denaturant m value (Rattus norvegicus, pH 7.5, Urea, SUPREX, Sodium phosphate 20 mM, KCl 100 mM) is 1 kcal/mol/M and 2.7 kcal/mol/M and 0.9 kcal/mol/M.

B2: Alpha-lactalbumin wild type, P00711 (protein)
chain: MMSFVSLLLVGILFHATQAEQLTKCEVFRELKDLKGYGGVSLPEWVCTTFHTSGYDTQAIVQNNDSTEYGLFQINNKIWCKDDQNPHSSNICNISCDKFLDDDLTDDIMCVKKILDKVGINYWLAHKALCSEKLDQWLCEKL
For B2, under setting [2], the denaturant m value is 1.4 kcal/mol/M and the unfolding free energy is 3 kcal/mol. Besides, the denaturant m value (Bos taurus, pH 7.4, GdnHCl, SUPREX, Sodium phosphate 20 mM) was found to be 1.6 kcal/mol/M.
